The values below are quoted from earlier work in publication PMC11173308.

The target of the data set is calmodulin (UniProt P0DP23).

As for arrestin-2 (from UniProt P17870), the Kd was 7 µM.

What is called Kd is the constant that tells how readily two partners part at equilibrium.
